Experimental data reported in publication PMC12833424.

Tested on: IgG1-DS5 (human IgG1/kappa framework, scFv phage library derived)
Assay: SPR steady state
Conditions: 2'-O-methyl; ELISA: streptavidin or anti-FAM plates, PBS/0.05% Tween 20 washes, BSA or Blotto block; EMSA: PBS, 1 h, room temperature, 20 uM oligo, 25 ng/uL IgG, 5% …

| Sequence | Kd [nM] |
| --- | --- |
| UUUUUCCUGUGUCCUGAAGAAAGCA / UUUCUUCAG [T2 duplex without biotin] | 440 |

Same assay, conditions: all 2'-O-methyl, 5' BCN on strand 2, 3' azide on strand 3, reacting to triazole, ELISA: streptavidin or anti-FAM plates, PBS/0.05% Tween 20 washes, BSA or Blotto block, EMSA: PBS, 1 h, room temperature, 20 uM oligo, 25 ng/uL IgG

| Sequence | Kd [nM] |
| --- | --- |
| UUUUUCCUGUGUCCUGAAGAAAGCAAAGACAUCUGGACAU / UUUCUUCAGGACACAG / GUCCAGAUGUCUUUGC [Temp1:BCN-haplomer-1:azide-haplomer-2 complex] | 330 |

Tested on: IgG1-DS5 (human IgG1/kappa framework, scFv phage library derived)
Assay: ELISA
Conditions: 2'-O-methyl; 3' azide on strand 2; ELISA: streptavidin or anti-FAM plates, PBS/0.05% Tween 20 washes, BSA or Blotto block; EMSA: PBS, 1 h, room temperature, 20 uM oligo, 25 ng/uL IgG, 5% …

| Sequence | binding signal (% of full complex ELISA slope) |
| --- | --- |
| UUUUUCCUGUGUCCUGAAGAAAGCAAAGACAUCUGGACAU / GUCCAGAUGUCUUUGC [D2 template:azide-haplomer-2] | 0 |

Same assay, conditions: 2'-O-methyl; ELISA: streptavidin or anti-FAM plates, PBS/0.05% Tween 20 washes, BSA or Blotto block; EMSA: PBS, 1 h, room temperature, 20 uM oligo, 25 ng/uL IgG, 5% …

| Sequence | binding signal (% of T2 ELISA slope) | binding signal (% of full complex ELISA slope) |
| --- | --- | --- |
| UUUUUCCUGUGUCACAAUAGAG / CUCUAUUGU [T9 TempTr8:complementary 9-mer] | 0 | – |
| UUUUUCCUGUGUCCUGAAGAAAGCAAAGACAUCUGGACAU / UUUCUUCAGGACACAG / GUCCAGAUGUCUUUGC [D5 template:oligo-1:oligo-2] | – | 45 |
| UUUUUCCUGUGUCCUGAAGAAAGCA / UUUCUUCAGGACACAG [T1 TempTr1:oligo-1] | – | 100 |
| UUUUUCCUGUGUCCUGAAGAAAGCA / UUUCUUCAG [T2 TempTr1:9-co] | – | 100 |
| UUUUUCCUGUGUCCUGAAGAAAGCAAAGACAUCUGGACAU / GUCCAGAUGUCUUUGC [D4 template:oligo-2] | – | 0 |
| UUUUUCCUGUGUCCUGAAGAAAGCAAAGACAUCUGGACAU / AUGUCUUUGCUUUCUUCAGG [D6 template:contig. complement-1] | – | 0.8 |
| UUUUUCGUGUGUGCUGAAGAAA / UUUCUUCAG [T8 TempTr7:9-co] | 0 | – |
| UUUUUCUCUCUGGCUGAAGAAA / UUUCUUCAG [T5 TempTr4:9-co] | 0 | – |
| UUUUUCUGAAGAA / UUUCUUCAG [T4 TempTr3:9-co] | 0 | – |
| UUUUUCCUGUGUCCUGAAGAAAGCAAAGACAUCUGGACAU / UUUCUUCAGGACACAG [D3 template:oligo-1] | – | 76.1 |
| UUUCUGAAGAAAUUUCCUGUGUC / UUUCUUCAG [T10 TempFlp:9-co] | 0 | – |
| UUUUUCCUGUGUCCUGAAGAAA / UUUCUUCAG [T3 TempTr2:9-co] | – | 100 |
